Data published in patent publication US20240383990A1 (DIAGONAL THERAPEUTICS, published 2024).

Assays:
[1] = molecular target: T1, IL-18 receptor (IL-18Rα and IL-18Rβ) on HEK-Blue IL-18 cells (UniProt Q13478 19-541; O95256 20-599, limits assumed); experiment: cell-based or functional assay
T1 sequence (looked up) 1: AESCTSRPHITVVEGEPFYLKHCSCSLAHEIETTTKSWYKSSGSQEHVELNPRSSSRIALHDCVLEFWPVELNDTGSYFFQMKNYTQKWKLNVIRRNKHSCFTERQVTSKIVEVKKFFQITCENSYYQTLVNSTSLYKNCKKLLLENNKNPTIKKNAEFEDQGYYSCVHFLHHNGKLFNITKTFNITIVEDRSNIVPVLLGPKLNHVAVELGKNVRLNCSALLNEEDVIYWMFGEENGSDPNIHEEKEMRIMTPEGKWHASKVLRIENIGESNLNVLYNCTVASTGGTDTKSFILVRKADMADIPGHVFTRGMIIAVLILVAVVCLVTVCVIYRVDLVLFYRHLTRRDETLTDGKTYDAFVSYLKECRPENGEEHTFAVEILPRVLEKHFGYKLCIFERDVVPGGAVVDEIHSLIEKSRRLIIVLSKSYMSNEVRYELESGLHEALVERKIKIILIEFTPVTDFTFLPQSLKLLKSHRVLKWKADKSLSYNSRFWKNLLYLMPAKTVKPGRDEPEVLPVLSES
T1 sequence (looked up) 2: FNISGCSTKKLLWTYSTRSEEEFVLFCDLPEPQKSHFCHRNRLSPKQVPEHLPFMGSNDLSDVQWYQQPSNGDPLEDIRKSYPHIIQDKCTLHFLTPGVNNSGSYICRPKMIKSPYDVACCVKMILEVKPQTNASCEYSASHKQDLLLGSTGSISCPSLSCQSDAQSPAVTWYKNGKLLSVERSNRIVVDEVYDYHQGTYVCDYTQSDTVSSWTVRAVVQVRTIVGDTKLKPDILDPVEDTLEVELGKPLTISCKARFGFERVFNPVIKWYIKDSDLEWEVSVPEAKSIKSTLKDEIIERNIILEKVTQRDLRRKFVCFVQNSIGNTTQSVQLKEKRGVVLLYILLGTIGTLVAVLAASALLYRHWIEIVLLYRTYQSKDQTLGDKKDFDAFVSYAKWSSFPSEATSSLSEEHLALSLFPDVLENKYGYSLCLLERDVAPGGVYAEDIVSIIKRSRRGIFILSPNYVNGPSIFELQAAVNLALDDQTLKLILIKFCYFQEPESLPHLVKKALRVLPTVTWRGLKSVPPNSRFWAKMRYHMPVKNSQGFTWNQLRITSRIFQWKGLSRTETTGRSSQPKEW

[2] = molecular target: T1, IL-18 receptor (IL-18Rα and IL-18Rβ) on …; experiment: cell-based or functional assay; remark: listed apart in the source

B1: DGL209 (bispecific antibody)
chain 1: QVQLVESGGGLVQAGGSLRLSCAASGRTFSKHAMGWFRQAPGKEREFVAAIDWSGGSTYYADSVKGRFTISRDNAKNTVYLQMDSLKPEDTAVYYCAADSYTDYAQLWLPELESEYDYWGQGTLVTVSSPLAPCPPCPAPEAAGAPSVFLFPPKPKDTLMISRTPEVTCVVVDVSHEDPEVKFNWYVDGVEVHNAKTKPREEQYNSTYRVVSVLTVLHQDWLNGKEYKCKVSNKALPAPIEKTISKAKGQPREPQVCTLPPSRDELTKNQVSLSCAVKGFYPSDIAVEWESNGQPENNYKTTPPVLDSDGSFFLVSKLTVDKSRWQQGNVFSCSVMHEALHNHYTQKSLSLSPGWSHPQFEK
chain 2: QLQLVESGGGLVQAGGSLRLSCAASRSITFSHNVMGWYRQAPGKQRELVASIGSGGSTNYVDSVKGRATISRDNAKKTVYLQMNSLKPEDTAVYYCGVVVGVYRGSLGQGTLVTVSSPLAPCPPCPAPEAAGAPSVFLFPPKPKDTLMISRTPEVTCVVVDVSHEDPEVKFNWYVDGVEVHNAKTKPREEQYNSTYRVVSVLTVLHQDWLNGKEYKCKVSNKALPAPIEKTISKAKGQPREPQVYTLPPCRDELTKNQVSLWCLVKGFYPSDIAVEWESNGQPENNYKTTPPVLDSDGSFFLYSKLTVDKSRWQQGNVFSCSVMHEALHNHYTQKSLSLSPGEPEA
With B1 the “HEK-Blue assay, % hu-IL-18” value [1] was 89 % of human IL18 activity and the “HEK-Blue assay, % human IL-18” value [2] was 65 % of human IL18 activity.
